Data reported in US5576288A, “Fibroblast growth factor conjugates” (The Salk Institute For Biological Studies, priority 1994, dated 1996).

Legend:
BHK cells [1] = assay: competition of cytotoxicity by preincubation with basic FGF or NGF; format: cell-based, baby hamster; conditions: BHK cells preincubated one hour; basic FGF-SAP 10^-10 M; up to thousand-fold excess; FIG. 4
Experimental: Basic FGF-SAP was used at a concentration of 10^-10 M basic FGF-AP and C: preincubation with equimolar free of basic FGF; D: 10-fold excess of free basic FGF; E: 100-fold excess of basic FGF; F: 1000-fold excess of basic FGF; G: equimolar incubation with equimolar free NGF; H: 10-fold molar excess; I: 100-fold molar excess, J: […].
Specificity of the cytotoxic agent was examined in competition experiments in an effort to establish that the mitotoxic activity of the conjugate is receptor specific. BHK cells were preincubated for one hour with various levels of basic FGF or nerve growth factor (NGF) prior to treatment of the cells with the cytotoxic agent. […] In contrast, a thousand-fold excess of NGF has no effect.

BHK cells [2] = assay: cytotoxic activity on BHK cells (cell count after two days); format: cell-based, baby hamster; conditions: highest dose tested 10^-8 M, FIG. 3
Experimental: The protein synthesis inhibition activity of the SAP protein was compared to the protein synthesis inhibition activity of the basic FGF-SAP conjugate in in vitro assays of protein synthesis as described in Siehn et al., Blood, 72:756-765 (1988), which is incorporated herein by reference. The cytotoxic activity of the conjugate was tested on baby hamster kidney fibroblasts (ATCC Accession No. CRL 6281). BHK cells were plated in 24 well plates at a concentration of 5000 cells/ml and incubated overnight at 37° C., 5% CO2. The following morning, HEPES-buffered DMEM and F-12 media (1:1) plus 5% FCS was aspirated from the wells and replaced with media alone or with media containing the conjugate, basic FGF or saporin. Two days later, the cells were washed twice, trypsinized and cell number determined with a Coulter Particle Counter (Coulter Electronics, Hialeah, Fla.).

Substance | effect of preincubation on cytotoxic activity of basic FGF-SAP (BHK cells [1]) | toxic effect on BHK cell proliferation (BHK cells [2])
NGF: nerve growth factor used as competition control | no effect | 
SAP: type-1 ribosome-inactivating protein isolated from the seeds of Saponaria officinalis |  | no toxic effect
